The values that follow come from FireProtDB (doi:10.1093/protein/15.10.817).

First the molecules themselves.
B1: High mobility group protein B1, P63159 (parent)
chain: MGKGDPKKPRGKMSSYAFFVQTCREEHKKKHPDASVNFSEFSKKCSERWKTMSAKEKGKFEDMAKADKARYEREMKTYIPPKGETKKKFKDPNAPKRPPSAFFLFCSEYRPKIKGEHPGLSIGDVAKKLGEMWNNTAADDKQPYEKKAAKLKEKYEKDIAAYRAKGKPDAAKKGVVKAEKSKKKKEEEDDEEDEEDEEEEEEEEDEDEEEDDDDE

Where “and” joins values, the source holds several entries; their conditions need not be identical. Identical values can stand only once.

This data set covers variants of B1. As to conditions: Rattus norvegicus, pH 7, Thermal, CD, HEPES 10 mM, structure 1HME, whole UniProt chain shown; for unfolding free energy / ddG of mutation (higher = less stable): 20 °C.

In general, Tm refers to the temperature at which the thermal transition is half complete. N135H D139H: the unfolding free energy was 1.69 kcal/mol and 2.42 kcal/mol and 1.67 kcal/mol; the Tm is 39 °C and 36.3 °C; the “unfolding enthalpy (van 't Hoff)” value is 35.8 kcal/mol and 32.3 kcal/mol. For the same variant, the unfolding free energy (NiSO4 1 mM) was 1.74 kcal/mol and 4.04 kcal/mol and 4.32 kcal/mol.
Regarding S121H, the “ddG of mutation (higher = less stable)” value stood at 1.85 kcal/mol; the unfolding free energy was 0.85 kcal/mol; the Tm stood at 30.4 °C; the “change of melting temperature, mutant - wild type (higher = more stable)” value (“change of melting temperature, mutant” for short) was -10.2 °C. Further, the “unfolding enthalpy (van 't Hoff)” value came to 28.2 kcal/mol. Under “NiSO4 1 mM”, the “ddG of mutation (higher = less stable)” value was 1.5 kcal/mol; the unfolding free energy is 1.2 kcal/mol; the Tm is 34.4 °C; the “change of melting temperature, mutant” value is -6.2 °C. The “unfolding enthalpy (van 't Hoff)” value (NiSO4 1 mM) worked out at 31.4 kcal/mol.
Consider N135H D140H, for which the “ddG of mutation (higher = less stable)” value is 1.3 kcal/mol and 1.2 kcal/mol; the unfolding free energy is 1.4 kcal/mol and 1.5 kcal/mol; the melting temperature (Tm) was 34.3 °C and 35.3 °C; the “change of melting temperature, mutant” value is -6.3 °C and -5.3 °C. Further, the “unfolding enthalpy (van 't Hoff)” value was 33.1 kcal/mol and 31.5 kcal/mol. For the same variant, the unfolding free energy (NiSO4 1 mM) is 1.8 kcal/mol and 2.46 kcal/mol.
On to I122H, for which the “ddG of mutation (higher = less stable)” value was 1.23 kcal/mol; the unfolding free energy is 1.74 kcal/mol; the Tm was 36.2 °C; the “change of melting temperature, mutant” value is -4.4 °C. Moreover, the “unfolding enthalpy (van 't Hoff)” value was 33.6 kcal/mol. Further, under “NiSO4 1 mM”, the “ddG of mutation (higher = less stable)” value worked out at 0 kcal/mol; the unfolding free energy came out at 2.7 kcal/mol; the Tm came to 41.9 °C; the “change of melting temperature, mutant” value was 1.3 °C. Moreover, the “unfolding enthalpy (van 't Hoff)” value (NiSO4 1 mM) was found to be 34.2 kcal/mol.
With D140H, the Tm came out at 38.2 °C; the “change of melting temperature, mutant” value is -2.4 °C; the “unfolding enthalpy (van 't Hoff)” value came to 33 kcal/mol. Moreover, under “NiSO4 1 mM”, the “ddG of mutation (higher = less stable)” value was -0.95 kcal/mol; the unfolding free energy worked out at 3.65 kcal/mol; the Tm is 46.8 °C; the “change of melting temperature, mutant” value was 6.2 °C. Besides, the “unfolding enthalpy (van 't Hoff)” value (NiSO4 1 mM) worked out at 36.8 kcal/mol.
Take D139H: the “ddG of mutation (higher = less stable)” value is -0.27 kcal/mol; the unfolding free energy stood at 2.97 kcal/mol; the Tm came out at 41.1 °C; the “change of melting temperature, mutant” value turned out to be 0.5 °C. Further, the “unfolding enthalpy (van 't Hoff)” value came out at 38.3 kcal/mol. For the same variant, where the note is “NiSO4 1 mM”, the “ddG of mutation (higher = less stable)” value is -0.97 kcal/mol; the unfolding free energy came to 3.67 kcal/mol; the Tm worked out at 46.8 °C; the “change of melting temperature, mutant” value turned out to be 6.2 °C. In addition, the “unfolding enthalpy (van 't Hoff)” value (NiSO4 1 mM) was found to be 41 kcal/mol.
As for G123H, the “ddG of mutation (higher = less stable)” value was determined as 0.34 kcal/mol and the unfolding free energy turned out to be 2.36 kcal/mol. Also, under “NiSO4 1 mM”, the “ddG of mutation (higher = less stable)” value is -0.47 kcal/mol; the unfolding free energy was 3.17 kcal/mol; the Tm was 44.9 °C; the “change of melting temperature, mutant” value came to 4.3 °C. Further, the “unfolding enthalpy (van 't Hoff)” value (NiSO4 1 mM) amounted to 36.8 kcal/mol.
